# In patent US20260250420A1 (SICHUAN KELUN BIOTECH BIOPHARMACEUTICAL, published 2026):
# T1: human PTK7 on cells (tumor cells endogenously expressing PTK7); CHO-hPTK7, CHO-S-hPTK7 and 293T-hPTK7 … (human, UniProt Q13308 31-1070)
# T1 sequence (looked up): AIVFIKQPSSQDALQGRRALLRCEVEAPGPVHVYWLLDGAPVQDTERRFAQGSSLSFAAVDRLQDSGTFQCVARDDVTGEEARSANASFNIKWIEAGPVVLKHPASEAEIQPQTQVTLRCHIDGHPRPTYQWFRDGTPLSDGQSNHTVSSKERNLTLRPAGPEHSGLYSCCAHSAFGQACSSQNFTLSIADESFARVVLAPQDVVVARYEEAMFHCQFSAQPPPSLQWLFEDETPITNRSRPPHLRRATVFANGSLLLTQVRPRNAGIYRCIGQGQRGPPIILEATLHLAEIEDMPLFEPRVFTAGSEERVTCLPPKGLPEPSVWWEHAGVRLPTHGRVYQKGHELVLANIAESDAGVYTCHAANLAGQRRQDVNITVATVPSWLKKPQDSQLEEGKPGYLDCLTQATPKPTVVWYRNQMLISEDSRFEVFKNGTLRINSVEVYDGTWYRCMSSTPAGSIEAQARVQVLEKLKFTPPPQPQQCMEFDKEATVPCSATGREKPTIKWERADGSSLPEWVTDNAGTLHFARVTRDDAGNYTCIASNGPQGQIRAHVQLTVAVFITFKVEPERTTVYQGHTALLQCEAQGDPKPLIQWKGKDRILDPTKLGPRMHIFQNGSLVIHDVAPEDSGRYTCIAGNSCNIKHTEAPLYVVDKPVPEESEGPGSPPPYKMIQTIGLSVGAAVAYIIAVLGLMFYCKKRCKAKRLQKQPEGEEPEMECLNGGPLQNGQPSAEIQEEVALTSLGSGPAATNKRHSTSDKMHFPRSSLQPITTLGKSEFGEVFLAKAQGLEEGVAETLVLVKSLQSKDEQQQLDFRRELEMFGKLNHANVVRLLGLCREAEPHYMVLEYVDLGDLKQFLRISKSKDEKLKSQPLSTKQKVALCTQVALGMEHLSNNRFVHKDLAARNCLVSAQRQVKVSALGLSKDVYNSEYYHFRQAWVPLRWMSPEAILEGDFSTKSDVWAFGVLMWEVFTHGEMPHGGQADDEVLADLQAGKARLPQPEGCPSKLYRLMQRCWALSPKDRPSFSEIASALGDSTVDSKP
# T2: monkey PTK7 protein (extracellular sequence of monkey PTK7 with C-terminal 6×His tag) (monkey)
# T2 chain: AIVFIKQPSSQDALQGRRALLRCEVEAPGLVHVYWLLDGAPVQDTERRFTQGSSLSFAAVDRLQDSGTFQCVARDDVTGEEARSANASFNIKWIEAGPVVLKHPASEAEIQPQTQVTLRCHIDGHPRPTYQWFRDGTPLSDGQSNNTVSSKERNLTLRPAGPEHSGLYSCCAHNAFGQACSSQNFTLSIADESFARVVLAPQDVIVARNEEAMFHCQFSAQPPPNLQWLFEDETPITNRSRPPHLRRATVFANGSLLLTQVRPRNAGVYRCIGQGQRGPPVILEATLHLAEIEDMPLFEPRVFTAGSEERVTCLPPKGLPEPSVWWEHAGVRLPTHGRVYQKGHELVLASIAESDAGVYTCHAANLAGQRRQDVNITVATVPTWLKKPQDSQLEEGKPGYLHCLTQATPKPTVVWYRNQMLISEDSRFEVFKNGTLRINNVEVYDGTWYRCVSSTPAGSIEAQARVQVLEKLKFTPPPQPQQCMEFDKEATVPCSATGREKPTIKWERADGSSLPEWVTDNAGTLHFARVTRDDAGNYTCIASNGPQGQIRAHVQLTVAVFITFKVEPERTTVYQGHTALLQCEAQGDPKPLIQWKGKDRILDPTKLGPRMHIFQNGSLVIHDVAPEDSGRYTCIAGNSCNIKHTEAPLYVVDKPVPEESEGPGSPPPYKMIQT
# T3: mouse PTK7 protein (extracellular sequence of mouse PTK7 with C-terminal 6×His tag) (mouse, UniProt Q8BKG3 23-696)
# T3 construct: extracellular domain; Expressed transiently in HEK293 cells
# T3 sequence: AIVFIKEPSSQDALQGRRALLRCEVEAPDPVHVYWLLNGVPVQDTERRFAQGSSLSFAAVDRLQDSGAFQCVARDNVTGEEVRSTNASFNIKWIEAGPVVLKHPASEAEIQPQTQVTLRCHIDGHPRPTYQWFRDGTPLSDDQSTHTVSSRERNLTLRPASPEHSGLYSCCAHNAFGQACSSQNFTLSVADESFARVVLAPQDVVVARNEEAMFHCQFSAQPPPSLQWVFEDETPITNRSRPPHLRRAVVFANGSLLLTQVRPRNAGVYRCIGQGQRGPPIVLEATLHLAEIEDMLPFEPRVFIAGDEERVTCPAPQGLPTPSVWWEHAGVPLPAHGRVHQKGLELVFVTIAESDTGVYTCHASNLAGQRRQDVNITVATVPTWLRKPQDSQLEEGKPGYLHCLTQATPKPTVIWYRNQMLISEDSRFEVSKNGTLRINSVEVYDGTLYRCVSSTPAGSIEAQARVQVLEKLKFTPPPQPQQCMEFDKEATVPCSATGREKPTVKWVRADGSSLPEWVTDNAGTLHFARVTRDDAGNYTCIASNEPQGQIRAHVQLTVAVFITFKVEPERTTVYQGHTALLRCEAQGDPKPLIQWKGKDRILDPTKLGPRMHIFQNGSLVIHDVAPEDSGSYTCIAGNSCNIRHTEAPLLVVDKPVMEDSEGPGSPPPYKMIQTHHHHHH
# B1: Hu24 (PTK7 control antibody, taken from Hu24 in the Patent CN201580030255) (antibody)
# chain 1: QVQLVQSGPEVKKPGASVKVSCKASGYTFTDYAVHWVRQAPGKRLEWIGVISTYNDYTYNNQDFKGRVTMTRDTSASTAYMELSRLRSEDTAVYYCARGNSYFYALDYWGQGTSVTVSS
# chain 2: EIVLTQSPATLSLSPGERATLSCRASESVDSYGKSFMHWYQQKPGQAPRLLIYRASNLESGIPARFSGSGSGTDFTLTISSLEPEDFAVYYCQQSNEDPWTFGGGTKLEIK
# B2: 64A10HZ (anti-human PTK7 humanized antibody) (antibody, human IgG1, kappa, V domains shown)
# VH: QVQLQESGPGLVKPSETLSLTCTVSGFSLTSYGVYWVRQPPGKGPEWLGVIWTSGNTNYNPSLKSRLTISKDNSKNQVSLKLSSVTAADTAVYYCVKHDGGNYVGVMNYWGQGTLVTVSS
# VL: EIVMTQSPDFQSVTPKEKVTITCRASQSISDYLHWYQQKPDQSPKLLIKYASQSISGVPSRFSGSGSGSDFTLTINSLEAEDAATYYCQNGHSFPPTFGQGTKLEIKR
# notes: Human IgG1 heavy chain constant region and human Kappa light chain constant region; expressed in CHO-S cells
# Assays:
# [1] = biological target: T1, human PTK7 on cells (tumor cells …); experiment: cell-based or functional assay
# [2] = biological target: T2, monkey PTK7 protein (extracellular …); experiment: ELISA, coated monkey PTK7 protein 1 µg/ml
# Procedure: (§1) Original data was imported into software for nonlinear curve fitting, and EC₅₀ of binding of each antibody to human PTK7 and monkey PTK7 was calculated, respectively. As shown in Table 1 and FIGS. 1A-1B, the screened antibodies could be bound to the human and monkey PTK7 proteins with affinity higher than that of the control antibody Hu24.
# [3] = biological target: T1, human PTK7 on cells (tumor cells …); experiment: competition flow cytometry on 293T-hPTK7 cells, streptavidin-PE; competitor: biotin-labelled 64A10HZ
# [4] = biological target: T3, mouse PTK7 protein (extracellular …); experiment: ELISA, coated mouse PTK7 protein
# Procedure: as §1
# ELISA and ForteBio were adopted to detect binding of the anti-human PTK7 chimeric and humanized antibodies to the monkey, mouse and rat PTK7 proteins.
Binder,"Cell endocytosis, EC50, A431 cells [1] [µg/mL]","Cell endocytosis, EC50, HCC1806 cells [1] [µg/mL]","Cell endocytosis, EC50, NCI-H358 cells [1] [µg/mL]","Cell endocytosis, EC50, OVCAR3 cells [1] [µg/mL]",EC50 [2] [µg/mL],IC50 (read off the curve) [3] [µg/mL],binding result [4]
B1,0.0743,0.0659,0.0708,0.101,0.0133,,
B2,,,,,,~0.3,no binding
